Assay results taken from patent publication US20210155676A1.

B1: PGT121.42 hIgG1/hLambda (antibody)
heavy: QMQLQESGPGLVKPSETLSLTCSVSGASISDSYWSWIRRSPGKGLEWIGYVHKSGDTNYNPSLKSRVHLSLDTSKNQVSLSLSSVTAADSGKYYCARTLHGRRIYGIVAFNEWFTYFYMDVWGKGTQVTVSSASTKGPSVFPLAPSSKSTSGGTAALGCLVKDYFPEPVTVSWNSGALTSGVHTFPAVLQSSGLYSLSSVVTVPSSSLGTQTYICNVNHKPSNTKVDKKVEPKSCDKTHTCPPCPAPELLAGPDVFLFPPKPKDTLMISRTPEVTCVVVDVSHEDPEVKFNWYVDGVEVHNAKTKPREEQYNSTYRVVSVLTVLHQDWLNGKEYKCKVSNKALPLPEEKTISKAKGQPREPQVYTLPPSREEMTKNQVSLTCLVKGFYPSDIAVEWESNGQPENNYKTTPPVLDSDGSFFLYSKLTVDKSRWQQGNVFSCSVLHEALHSHYTQKSLSLSPGK
light: not shown
B2: PGT121.56 hIgG1/hLambda (antibody)
heavy: QMQLQESGPGLVKPSETLSLTCSVSGASISDSYWSWIRRSPGKGLEWIGYVHKSGDTNYSPSLKSRVNLSLDTSKNQVSLSLVAATAADSGKYYCARTLHGRRIYGIVAFNEWFTYFYMDVWGNGTQVTVSSASTKGPSVFPLAPSSKSTSGGTAALGCLVKDYFPEPVTVSWNSGALTSGVHTFPAVLQSSGLYSLSSVVTVPSSSLGTQTYICNVNHKPSNTKVDKKVEPKSCDKTHTCPPCPAPELLAGPDVFLFPPKPKDTLMISRTPEVTCVVVDVSHEDPEVKFNWYVDGVEVHNAKTKPREEQYNSTYRVVSVLTVLHQDWLNGKEYKCKVSNKALPLPEEKTISKAKGQPREPQVYTLPPSREEMTKNQVSLTCLVKGFYPSDIAVEWESNGQPENNYKTTPPVLDSDGSFFLYSKLTVDKSRWQQGNVFSCSVLHEALHSHYTQKSLSLSPGK
light: not shown
B3: PGT121.60 hIgG1/hLambda (antibody)
heavy: QMQLQESGPGLVKPSETLSLTCSVSGASISDSYWSWIRRSPGKGLEWIGYVHKSGDTNYNPSLKSRVHLSLDTSKNQVSLSLTGVTAADSGKYYCARTLHGRRIYGIVAFNEWFTYFYMDVWGTGTQVTVSSASTKGPSVFPLAPSSKSTSGGTAALGCLVKDYFPEPVTVSWNSGALTSGVHTFPAVLQSSGLYSLSSVVTVPSSSLGTQTYICNVNHKPSNTKVDKKVEPKSCDKTHTCPPCPAPELLAGPDVFLFPPKPKDTLMISRTPEVTCVVVDVSHEDPEVKFNWYVDGVEVHNAKTKPREEQYNSTYRVVSVLTVLHQDWLNGKEYKCKVSNKALPLPEEKTISKAKGQPREPQVYTLPPSREEMTKNQVSLTCLVKGFYPSDIAVEWESNGQPENNYKTTPPVLDSDGSFFLYSKLTVDKSRWQQGNVFSCSVLHEALHSHYTQKSLSLSPGK
light: not shown
B4: PGT121.61 hIgG1/hLambda (antibody)
heavy: QMQLQESGPGLVKPSETLSLTCSVSGASISDSYWSWIRRSPGKGLEWIGYVHKSGDTNYNPSLKSRVHLSLDTSKNQVSLSLTGVTAADSGKYYCARTLHGRRIYGIVAFNEWFTYFYMDVWGTGTQVTVSSASTKGPSVFPLAPSSKSTSGGTAALGCLVKDYFPEPVTVSWNSGALTSGVHTFPAVLQSSGLYSLSSVVTVPSSSLGTQTYICNVNHKPSNTKVDKKVEPKSCDKTHTCPPCPAPELLAGPDVFLFPPKPKDTLMISRTPEVTCVVVDVSHEDPEVKFNWYVDGVEVHNAKTKPREEQYNSTYRVVSVLTVLHQDWLNGKEYKCKVSNKALPLPEEKTISKAKGQPREPQVYTLPPSREEMTKNQVSLTCLVKGFYPSDIAVEWESNGQPENNYKTTPPVLDSDGSFFLYSKLTVDKSRWQQGNVFSCSVLHEALHSHYTQKSLSLSPGK
light: SDISVAPGETARISCGEKSLGSRAVQWYQHRAGQAPSLIIYNNQDRPSGIPERFSGSPDSRPGTTATLTITSVEAGDEADYYCHIWDSRVPTKWVFGGGTKLTVLGQPKAAPSVTLFPPSSEELQANKATLVCLISDFYPGAVTVAWKADSSPVKAGVETTTPSKQSNNKYAASSYLSLTPEQWKSHRSYSCQVTHEGSTVEKTVAPTECS
B5: PGT121.64 hIgG1/hLambda (antibody)
heavy: QLQLQESGPGLVKPSETLSLTCSVSGASISDAYWSWIRRSPGKGLEWIGYVHKSGDTNYNPSLKSRVHLSLDTSKNQVSLSLTGVTAADSGKYYCARALHGRRIYGIVAFNEWFTYFYMDVWGTGTQVTVSSASTKGPSVFPLAPSSKSTSGGTAALGCLVKDYFPEPVTVSWNSGALTSGVHTFPAVLQSSGLYSLSSVVTVPSSSLGTQTYICNVNHKPSNTKVDKKVEPKSCDKTHTCPPCPAPELLAGPDVFLFPPKPKDTLMISRTPEVTCVVVDVSHEDPEVKFNWYVDGVEVHNAKTKPREEQYNSTYRVVSVLTVLHQDWLNGKEYKCKVSNKALPLPEEKTISKAKGQPREPQVYTLPPSREEMTKNQVSLTCLVKGFYPSDIAVEWESNGQPENNYKTTPPVLDSDGSFFLYSKLTVDKSRWQQGNVFSCSVLHEALHSHYTQKSLSLSPGK
light: not shown
B6: PGT121.65 hIgG1/hLambda (antibody)
heavy: QLQLQESGPGLVKPSETLSLTCSVSGASISDAYWSWIRRSPGKGLEWIGYVHKSGDTNYNPSLKSRVHLSLDTSKNQVSLSLTGVTAADSGKYYCARALHGRRIYGIVAFNEWFTYFYMDVWGTGTQVTVSSASTKGPSVFPLAPSSKSTSGGTAALGCLVKDYFPEPVTVSWNSGALTSGVHTFPAVLQSSGLYSLSSVVTVPSSSLGTQTYICNVNHKPSNTKVDKKVEPKSCDKTHTCPPCPAPELLAGPDVFLFPPKPKDTLMISRTPEVTCVVVDVSHEDPEVKFNWYVDGVEVHNAKTKPREEQYNSTYRVVSVLTVLHQDWLNGKEYKCKVSNKALPLPEEKTISKAKGQPREPQVYTLPPSREEMTKNQVSLTCLVKGFYPSDIAVEWESNGQPENNYKTTPPVLDSDGSFFLYSKLTVDKSRWQQGNVFSCSVLHEALHSHYTQKSLSLSPGK
light: SDISVAPGETARISCGEKSLGSRAVQWYQHRAGQAPSLIIYNNQDRPSGIPERFSGSPDSRPGTTATLTITSVEAGDEADYYCHIWDSRVPTKWVFGGGTKLTVLGQPKAAPSVTLFPPSSEELQANKATLVCLISDFYPGAVTVAWKADSSPVKAGVETTTPSKQSNNKYAASSYLSLTPEQWKSHRSYSCQVTHEGSTVEKTVAPTECS

Target: Env of 92 subtype B viruses
Assay: cell-based or functional assay

Row | Binder | PGT121 IC50/Variant IC50 [fold] | neutralization Coverage (%) | neutralization Median IC95 [µg/mL]
1 | B1 | 1.2 | 63 | 0.277
2 | B2 |  | 62 | 0.265
3 | B3 | 1.9 | 59.8 | 0.177
4 | B4 | 1 | 58.7 | 0.327
5 | B5 | 2.6 | 59.8 | 0.129
6 | B6 | 2 | 59.8 | 0.165
